Laboratory results published in article PMC8545111, “Molecular Basis of the Versatile Regulatory Mechanism of HtrA-Type Protease AlgW from Pseudomonas aeruginosa” (mBio, 2021).
Values joined by “and” are separate entries in the source; they are usually repeats but may differ in a detail not shown here. Equal values may be shown once. Non-standard residues stand in square brackets, D forms with d. Residues, ends and D or L forms follow the SMILES beside them. *: point of attachment. pNA = O=[N+]([O-])c1ccc(N*)cc1; 2Abz = Nc1ccccc1C(=O)O

Experiments:
[1] = tested on: CC(C)C[C@H](NC(=O)[C@@H](NC(=O)c1ccccc1N)C(C)C)C(=O)N[C@@H](C)C(=O)NCC(=O)Nc1ccc([N+](=O)[O-])cc1; experiment: Fluorogenic Abz-VLAG-pNA cleavage by peptide-activated AlgW and LA loop mutants (200 nM), 25 mM Tris pH 7.5, 150 mM NaCl, 37°C, Michaelis-Menten fit.; type: biochemical
Experimental: Based on the identified MucA and MucB cleavage sites for AlgW ([6], [13]), self-quenching fluorogenic tetrapeptides derived from 134-VLAG-137 of MucA (Abz-VLAG-pNA), 211-TVAW-214 of MucB (Abz-TVAW-pNA), and alanine tetrapeptide (Abz-AAAA-pNA) were synthesized and subjected to real-time measurement of AlgW proteolytic activity in the presence of excessive peptides (10 mM) (Fig. 2A). Compared with the negative-control group (using Abz-AAAA-pNA substrate), both Abz-VLAG-pNA and Abz-TVAW-pNA could be efficiently cleaved by AlgW. […] Considering that MucA is the major target of AlgW, substrate Abz-VLAG-pNA and decapeptide activator SVRDELRWVF were selected to establish a real-time AlgW assay to investigate the kinetic mechanism.
(§1) For the enzyme mechanism of AlgW (30–389) and mutants, two internally quenched fluorescent peptide substrates incorporating the peptidase cleavage site of MucA/MucB, Abz-VLAG-pNA and Abz-TVAW-pNA, were designed and synthesized (GL Biochem Shanghai Ltd., China). In the intact peptide, the fluorescence of the anthraniloyl group is quenched by the P-nitroaniline (Abz is a fluorogenic group, and pNA is a quencher of fluorescence). This quenched fluorescence is liberated upon cleavage of peptide by 200 nM AlgW and mutants (200/3 nM for trimer), resulting in increased fluorescence that can then be monitored fluorometrically. Prior to the assay, all enzyme preparations were incubated with 10 mM agonist peptides (WVF or SVRDELRWVF) for 30 min at room temperature. All assays were placed in a buffer containing 25 mM Tris (pH 7.5) and 150 mM NaCl at 37°C for 1 h, and the final assay volume was 100 μl. The fluorescent degradation products were monitored at 60-s intervals at fluorescence wavelength—λex = 310 nm, λem = 420 nm ([41]). All data points were representative of three independent determinations and were simulated with solid lines with the formula Y = Vmax · X^h/(Km ^h + X^h) or Y = Vmax · X^h/(Khalf^h + X^h) or the Michaelis-Menten formula (Y = Vmax · X/[Km + X]). Substrate versus velocity was used to determine Km and Vmax, and agonists versus velocity was used to determine the half-maximal activation concentration and maximum activation rate of agonists. The fitting and calculation of data were carried out using Prism 7 (GraphPad, CA, USA).

AlgW = experiment: Quenched fluorescent substrate cleavage by peptide/lipid-activated AlgW (substrate versus velocity); type: biochemical, Pseudomonas aeruginosa; conditions: three independent determinations; for Km / Vmax: substrate gradient 3.125-300 μM, Hill fit; for Km / Hill constants: Tris pH 7.5, 37°C; for Hill constants: substrate gradient; for Vmax: 25 mM Tris pH 7.5, 150 mM NaCl, 37°C, 1 h, fluorescence ex 310/em 420 nm
Experimental: FIG 2 Determination of enzyme apparent kinetic parameters of dual-signal-activated AlgW. (A) Activity assay of tripeptide or decapeptide-activated AlgW using the quenched fluorescent substrates Abz-VLAG-pNA, Abz-TVAW-pNA, and Abz-AAAA-pNA. All assays were placed in a buffer containing 25 mM Tris (pH 7.5) and 150 mM NaCl at 37°C for 1 h by adding 100 μM substrate, 200 nM AlgW, and 10 mM agonist peptides (tripeptide WVF or decapeptide SVRDELRWVF). (B) The apparent Michaelis-Menten parameters of AlgW cleavage quenched fluorescent substrates Abz-VLAG-pNA (100 μM) under the condition of peptide or lipid activation. (C) The activity assay of peptide or DDM activated AlgW using the saturated quenched fluorescent substrates Abz-VLAG-pNA. Under the gradient of peptide or DDM concentration,100 μM substrate and 200 nM AlgW were coincubated with or without 400 μM DDM or 10 mM agonist peptides in a buffer containing 25 mM Tris (pH 7.5) and 150 mM NaCl at 37°C for 1 h. The final assay volume of all experiments was 100 μl, and the appearance of fluorescent products was monitored at 60-s intervals at fluorescence wavelengths of λex = 310 nm and λem = 420 nm. All data points were representative of three independent determinations and were simulated with solid lines through the formula of Y = Vmax · X^h/(Km^h + X^h) or Y = Vmax · X^h/(Khalf^h + X^h). The Kcat for the AlgW trimer was calculated by Kcat = Vmax/(Etotal), (Etotal) = 200/3 nM trimers. Error bars represent the standard deviation.
as §1
All experiments were performed in independent biological triplicate, and the results of replicates were consistent. The fitting and calculation of data were carried out with Prism 7 (GraphPad, CA, USA). All the enzyme kinetic data points were representative of three independent determinations and were simulated with solid lines through the formula Y = Vmax · X^h/(Km^h + X^h) or Y = Vmax · X^h/(Khalf^h + X^h) or the Michaelis-Menten formula (Y = Vmax · X/[Km + X]). Substrate versus velocity was used to determine Km and Vmax, and agonists versus velocity was used to determine the half-maximal activation concentration and maximum activation rate of agonists; error bars represent the standard deviation.

[2] = molecular target: the molecule itself; experiment: crystal structure; protein mixed with peptide activator (tripeptide WVF or decapeptide …) prior to crystallization; hanging-drop vapor diffusion at 18°C; molecular replacement
AlgW and mutants = experiment: Apparent activation parameters of AlgW and mutants (peptide agonist gradient); type: biochemical, Pseudomonas aeruginosa; conditions: peptide activator (decapeptide) gradient, substrate Abz-VLAG-pNA, Michaelis-Menten fit, means of three independent determinations; for EC50: read-out: Half-maximal activation concn; for Maximal cleavage activity: Tris pH 7.5, 150 mM NaCl, 37°C
Source text: as §1

[3] = decapeptide SVRDELRWVF (10 mM) activated AlgW 200 nM
[4] = decapeptide SVRDELRWVF (10 mM, 30 min RT pre-incubation) activated AlgW 200 nM
[5] = tripeptide WVF (10 mM) activated AlgW 200 nM
[6] = tripeptide WVF (10 mM, 30 min RT pre-incubation) activated AlgW 200 nM

Molecule “AlgW-T72A (Pseudomonas aeruginosa PAO1; T72A)” has a Km [1] of 86.69 ± 15.8 µM, a Vmax [1] of 766 µM/min and a kcat/Km [1] of 2.21e+06 ± 156000 M⁻¹ s⁻¹.

For “AlgW-TTK (71–73)A (Pseudomonas aeruginosa PAO1; K73A/T71A/T72A)”, the Km [1] was 125.1 ± 19.87 µM, the Vmax [1] was 1430 µM/min and the kcat/Km [1] was 2.86e+06 ± 199000 M⁻¹ s⁻¹.

Molecule “AlgW-T71A (Pseudomonas aeruginosa PAO1; T71A)” has a Km [1] of 48.29 ± 6.19 µM, a Vmax [1] of 154 µM/min and a kcat/Km [1] of 799000 ± 33200 M⁻¹ s⁻¹.

For CC(C)C[C@H](NC(=O)[C@@H](NC(=O)c1ccccc1N)C(C)C)C(=O)N[C@@H](C)C(=O)NCC(=O)Nc1ccc([N+](=O)[O-])cc1 [Abz-VLAG-pNA] (H-[2Abz]VLAG-pNA), the Km (AlgW; [3]) was 50.1 ± 9.65 µM, the Hill constants (AlgW; [3]) was ~1 and 0.95 ± 0.09 and the Vmax (AlgW; [4]) was 187 ± 12.83 µM/min. It also gave a Km (AlgW; [5]) of 14.8 ± 2.16 µM, a Hill constants (AlgW; [5]) of 1.51 ± 0.29 and a Vmax (AlgW; [6]) of 81.23 ± 4.02 µM/min.

In the case of CC(C)[C@H](NC(=O)[C@@H](NC(=O)c1ccccc1N)[C@@H](C)O)C(=O)N[C@@H](C)C(=O)N[C@@H](Cc1c[nH]c2ccccc12)C(=O)Nc1ccc([N+](=O)[O-])cc1 [Abz-TVAW-pNA] (H-[2Abz]TVAW-pNA), the Km (AlgW; [3]) is reported as 26.9 ± 1.48 µM, the Hill constants (AlgW; [3]) is reported as 1.26 and 1.26 ± 0.07 and the Vmax (AlgW; [4]) is reported as 319.5 ± 6.42 µM/min. The Km (AlgW; [5]) was 25.1 ± 1.93 µM, the Hill constants (AlgW; [5]) was 1.25 and 1.25 ± 0.09 and the Vmax (AlgW; [6]) was 264.1 ± 7.31 µM/min.

“AlgW-ESS (103–105)A (Pseudomonas aeruginosa PAO1; E103A/S104A/S105A)” showed a Km [1] of 123.1 ± 19.44 µM, a Vmax [1] of 873 µM/min and a kcat/Km [1] of 1.77e+06 ± 122000 M⁻¹ s⁻¹.

“AlgW-K73A (Pseudomonas aeruginosa PAO1; K73A)” was tested, and the Km [1] was 247.9 ± 93.04 µM, the Vmax [1] was 188 µM/min and the kcat/Km [1] was 189000 ± 39700 M⁻¹ s⁻¹.

B1: AlgW_(52-389), periplasmic soluble domain of AlgW for crystallization (enzyme)
chain: PVSYANAVSRAAPAVANLYTTKMVSKPSHPLFDDPMFRRFFGDNLPQQKRMESSLGSAVIMSAEGYLLTNNHVTAGADQIIVALRDGRETIAQLVGSDPETDLAVLKIDLKNLPAMTLGRSDGIRTGDVCLAIGNPFGVGQTVTMGIISATGRNQLGLNTYEDFIQTDAAINPGNSGGALVDAAGNLIGINTAIFSKSGGSQGIGFAIPTKLALEVMQSIIEHGQVIRGWLGVEVKALTPELAESLGLGETAGIVVAGVYRDGPAARGGLLPGDVILTIDKQEASDGRRSMNQVARTRPGQKISIVVLRNGQKVNLTAEVGLRPPPAPAPQQKQDGGE
notes: Vector pET22b-(LEVLFQ/GP)-6xHis has a PreScission site that allows removal of the His tag; source: E. coli BL21(DE3), purified (Ni-NTA, Superdex-75 SEC)
B1 was tested, and the “stoichiometry N” value [2] was 3.

B2: AlgWS227A (inactive mutant of the periplasmic soluble domain of AlgW, for crystallization) (enzyme)
chain: PVSYANAVSRAAPAVANLYTTKMVSKPSHPLFDDPMFRRFFGDNLPQQKRMESSLGSAVIMSAEGYLLTNNHVTAGADQIIVALRDGRETIAQLVGSDPETDLAVLKIDLKNLPAMTLGRSDGIRTGDVCLAIGNPFGVGQTVTMGIISATGRNQLGLNTYEDFIQTDAAINPGNAGGALVDAAGNLIGINTAIFSKSGGSQGIGFAIPTKLALEVMQSIIEHGQVIRGWLGVEVKALTPELAESLGLGETAGIVVAGVYRDGPAARGGLLPGDVILTIDKQEASDGRRSMNQVARTRPGQKISIVVLRNGQKVNLTAEVGLRPPPAPAPQQKQDGGE
notes: AlgW of Pseudomonas aeruginosa, residues 52-389 (construct for crystallization), catalytic serine S227 changed to alanine; source: E. coli BL21(DE3), purified (Ni-NTA, Superdex-75 SEC)
With B2 the “stoichiometry N” value [2] was 3.

B3: AlgW-V284A (protein)
chain: VGLPRQEVHVEQAPLLSRLQEGPVSYANAVSRAAPAVANLYTTKMVSKPSHPLFDDPMFRRFFGDNLPQQKRMESSLGSAVIMSAEGYLLTNNHVTAGADQIIVALRDGRETIAQLVGSDPETDLAVLKIDLKNLPAMTLGRSDGIRTGDVCLAIGNPFGVGQTVTMGIISATGRNQLGLNTYEDFIQTDAAINPGNSGGALVDAAGNLIGINTAIFSKSGGSQGIGFAIPTKLALEVMQSIIEHGQVIRGWLGAEVKALTPELAESLGLGETAGIVVAGVYRDGPAARGGLLPGDVILTIDKQEASDGRRSMNQVARTRPGQKISIVVLRNGQKVNLTAEVGLRPPPAPAPQQKQDGGE
modifications: left off: His6, C-terminal, state not stated
B3 showed an EC50 (AlgW and mutants) of 3.56 ± 0.73 µM and a Maximal cleavage activity (AlgW and mutants) of 63.13 ± 3.82 µM/min.

B4: AlgW-K287A (protein)
chain: VGLPRQEVHVEQAPLLSRLQEGPVSYANAVSRAAPAVANLYTTKMVSKPSHPLFDDPMFRRFFGDNLPQQKRMESSLGSAVIMSAEGYLLTNNHVTAGADQIIVALRDGRETIAQLVGSDPETDLAVLKIDLKNLPAMTLGRSDGIRTGDVCLAIGNPFGVGQTVTMGIISATGRNQLGLNTYEDFIQTDAAINPGNSGGALVDAAGNLIGINTAIFSKSGGSQGIGFAIPTKLALEVMQSIIEHGQVIRGWLGVEVAALTPELAESLGLGETAGIVVAGVYRDGPAARGGLLPGDVILTIDKQEASDGRRSMNQVARTRPGQKISIVVLRNGQKVNLTAEVGLRPPPAPAPQQKQDGGE
modifications: left off: His6, C-terminal, state not stated
B4 showed an EC50 (AlgW and mutants) of 6.53 ± 1.38 µM and a Maximal cleavage activity (AlgW and mutants) of 49.42 ± 3.59 µM/min.

B5: AlgW-E285A (protein)
chain: VGLPRQEVHVEQAPLLSRLQEGPVSYANAVSRAAPAVANLYTTKMVSKPSHPLFDDPMFRRFFGDNLPQQKRMESSLGSAVIMSAEGYLLTNNHVTAGADQIIVALRDGRETIAQLVGSDPETDLAVLKIDLKNLPAMTLGRSDGIRTGDVCLAIGNPFGVGQTVTMGIISATGRNQLGLNTYEDFIQTDAAINPGNSGGALVDAAGNLIGINTAIFSKSGGSQGIGFAIPTKLALEVMQSIIEHGQVIRGWLGVAVKALTPELAESLGLGETAGIVVAGVYRDGPAARGGLLPGDVILTIDKQEASDGRRSMNQVARTRPGQKISIVVLRNGQKVNLTAEVGLRPPPAPAPQQKQDGGE
modifications: left off: His6, C-terminal, state not stated
B5 gave an EC50 (AlgW and mutants) of 3.84 ± 1.09 µM and a Maximal cleavage activity (AlgW and mutants) of 57.5 ± 4.9 µM/min.
